# Experimental data from the Human Domainome abundance scans (Beltran et al. 2025).
# ± gives the uncertainty stated by the source.
# B1: PMS1 protein homolog 1, residues 572 to 637; numbered along this chain, P54277 (parent)
# chain: KKPMSASALFVQDHRPQFLIENPKTSLEDATLQIEELWKTLSEEEKLKYEEKATKDLERYNSQMKR
# Variants of: B1
# Experiment: abundance fitness (aPCA) (normalised: wild type 0, dead -1); higher = more abundant; growth selection in yeast, the domain comes from the species named
# Details: Homo sapiens
row,Variant,abundance fitness
1,L47R,-0.091 ± 0.12
2,L47V,0.055 ± 0.14
3,L47S,-0.039 ± 0.1
4,L47N,0.202 ± 0.42
5,L47A,0.058 ± 0.1
6,L47F,-0.085 ± 0.16
7,K46S,-0.641 ± 0.066
8,K46E,-1.08 ± 0.1
9,K46C,-0.569 ± 0.099
10,K46L,-0.685 ± 0.046
11,K46W,-1.17 ± 0.068
12,K46F,-1.21 ± 0.16
13,S5I,-0.336 ± 0.28
14,S5G,-0.032 ± 0.087
15,S5K,-0.179 ± 0.12
16,S5P,0.322 ± 0.3
17,S5A,-0.252 ± 0.13
18,S5D,-0.341 ± 0.34
19,S5R,-0.293 ± 0.1
20,M4C,-0.627 ± 0.18
21,M4N,-0.157 ± 0.47
22,M4A,-0.072 ± 0.072
23,M4F,-0.12 ± 0.18
24,M4V,-0.091 ± 0.065

row,Variant,abundance fitness
1,M4R,-0.106 ± 0.077
2,M4P,-0.064 ± 0.18
3,D56M,-0.231 ± 0.17
4,D56V,-0.348 ± 0.085
5,D56L,-0.142 ± 0.079
6,D56Q,-0.162 ± 0.15
7,D56R,-0.128 ± 0.083
8,D56G,-0.144 ± 0.1
9,T54L,-0.009 ± 0.052
10,T54W,-0.346 ± 0.074
11,F10H,-0.183 ± 0.39
12,F10S,-0.422 ± 0.13
13,F10Q,-0.466 ± 0.13
14,F10W,-0.267 ± 0.15
15,S62N,0.017 ± 0.12
16,S62Y,-0.104 ± 0.096
17,S62A,-0.017 ± 0.072
18,S62T,-0.227 ± 0.093
19,Y49T,-0.614 ± 0.087
20,Y49R,-0.516 ± 0.081
21,Y49E,-0.819 ± 0.11
22,Y49D,-0.634 ± 0.28
23,Y49N,-0.717 ± 0.12
24,A53C,-0.211 ± 0.091

row,Variant,abundance fitness
1,A53L,-0.432 ± 0.053
2,A53D,-0.498 ± 0.11
3,A53G,-0.52 ± 0.057
4,L9P,-0.98 ± 0.25
5,L9A,-0.61 ± 0.23
6,L9Y,-0.155 ± 0.17
7,L9Q,0.032 ± 0.16
8,L9N,-0.467 ± 0.27
9,L9T,-0.287 ± 0.15
10,Y60W,-0.117 ± 0.091
11,Y60H,-0.075 ± 0.13
12,Y60Q,-0.092 ± 0.13
13,Y60M,-0.339 ± 0.15
14,Y60G,-0.046 ± 0.06
15,Y60D,0.026 ± 0.11
16,Y60N,0.022 ± 0.19
17,Y60C,-0.002 ± 0.13
18,Y60R,-0.07 ± 0.055
19,R66A,0.067 ± 0.082
20,R66N,0.031 ± 0.34
21,R66M,0.044 ± 0.14
22,R66I,-0.697 ± 0.43
23,R66G,0.054 ± 0.11
24,R66E,0.031 ± 0.17

row,Variant,abundance fitness
1,R66T,0.019 ± 0.12
2,M64K,-0.349 ± 0.21
3,M64T,-0.142 ± 0.099
4,M64V,0.015 ± 0.067
5,M64L,-0.133 ± 0.062
6,M64G,-0.103 ± 0.1
7,M64I,-0.172 ± 0.12
8,E51G,-0.237 ± 0.054
9,T25R,-0.317 ± 0.095
10,T25W,-0.531 ± 0.091
11,T25V,0.116 ± 0.12
12,T25L,-0.096 ± 0.092
13,K39W,-0.507 ± 0.21
14,K39L,-0.22 ± 0.18
15,K39Q,0.017 ± 0.26
16,K39V,-0.465 ± 0.23
17,K39R,-0.285 ± 0.099
18,T40M,-0.165 ± 0.15
19,T40F,-0.041 ± 0.13
20,T40Y,-0.387 ± 0.18
21,T40G,-0.041 ± 0.075
22,T40L,-0.114 ± 0.073
23,T40N,-0.086 ± 0.12
24,K52H,-0.272 ± 0.12

row,Variant,abundance fitness
1,K52Q,-0.009 ± 0.092
2,K52T,-0.288 ± 0.087
3,K52P,-0.38 ± 0.1
4,K52F,-0.507 ± 0.092
5,K52S,-0.184 ± 0.06
6,D13N,-0.556 ± 0.25
7,L27S,-0.048 ± 0.14
8,L27Y,-0.079 ± 0.16
9,L27Q,-0.532 ± 0.31
10,L27T,-0.101 ± 0.14
11,L27E,-0.538 ± 0.41
12,L27F,0.224 ± 0.23
13,L27V,-0.132 ± 0.13
14,T31D,-0.11 ± 0.48
15,T31Q,-0.359 ± 0.28
16,R15G,-0.559 ± 0.075
17,R15L,0.003 ± 0.084
18,R15H,-0.227 ± 0.15
19,R15S,-0.41 ± 0.16
20,R15W,-0.408 ± 0.12
21,R15P,-0.541 ± 0.14
22,R15M,0.07 ± 0.075
23,R15F,0.035 ± 0.43
24,R15A,-0.039 ± 0.13

row,Variant,abundance fitness
1,R15T,-0.111 ± 0.27
2,Q33G,-0.405 ± 0.12
3,E43D,0.029 ± 0.1
4,E43Q,0.007 ± 0.08
5,E43Y,-0.095 ± 0.086
6,E43R,-0.025 ± 0.059
7,E43N,0.046 ± 0.13
8,E43A,0.004 ± 0.067
9,S7C,-0.28 ± 0.22
10,S7A,0.007 ± 0.096
11,S7M,0.235 ± 0.25
12,S7H,-0.144 ± 0.16
13,S7T,-0.122 ± 0.12
14,S7D,0.036 ± 0.25
15,S7L,-0.087 ± 0.09
16,K48T,-0.205 ± 0.084
17,K48L,-0.081 ± 0.074
18,K48C,0.041 ± 0.17
19,K48S,-0.135 ± 0.072
20,K48V,-0.008 ± 0.1
21,K48G,-0.28 ± 0.13
22,E44M,-0.408 ± 0.089
23,E44T,-0.135 ± 0.092
24,E44G,-0.064 ± 0.052

row,Variant,abundance fitness
1,E44S,-0.05 ± 0.056
2,E44W,-0.433 ± 0.067
3,S26V,-0.654 ± 0.073
4,S26G,-0.223 ± 0.098
5,S26I,-0.605 ± 0.053
6,S26L,-0.538 ± 0.053
7,S26Q,-0.327 ± 0.1
8,S26K,-0.155 ± 0.067
9,S26C,-0.111 ± 0.069
10,S26D,-0.102 ± 0.11
11,E35D,-0.86 ± 0.4
12,E35I,-0.33 ± 0.33
13,E35C,-0.274 ± 0.098
14,E35H,-0.171 ± 0.12
15,E35T,-0.207 ± 0.15
16,E35V,-0.548 ± 0.12
17,E35N,-0.389 ± 0.26
18,E35P,-0.14 ± 0.31
19,K1V,-0.191 ± 0.28
20,K1E,-0.022 ± 0.14
21,L41G,-0.315 ± 0.066
22,L41T,-0.007 ± 0.086
23,L41D,-0.319 ± 0.094
